Source: the supplement of paper PMC12042874
± gives the uncertainty stated by the source.

assay: amyloid nucleation score (Sup35N fusion, yeast selection) (log enrichment); library NNK2; higher = more nucleation; inactive = no reads after selection
In short: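 Nucleation score is defined as the DiMSum log enrichment of output over input reads, with centring on the mode score of non-aggregating sequences. A minimum of 100 input reads was required for each sequence. Reads came from Illumina sequencing of plasmid inserts from psi-negative yeast expressing Sup35N fused to peptides of 20 random codons, induced with 100 μM copper sulfate for 24 hours and grown 7 days at 30°C on medium lacking adenine and uracil.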

Substance	amyloid nucleation score
VYRMPGVSWKYVS	0.501 ± 0.8
VYRNNL	-1.84 ± 1.1
VYYSGALFQNVLYLLSFMVV	-0.501 ± 1.1
WAIRPSRYYITAYAVELHCD	9.114 ± 0.074
WASLGYTCFGKVRRWAPGTH	0.371 ± 0.28
WAWVYGCDGYLIGSSRLANG	0.368 ± 0.25
WCCKVTGHFPDTEQYYFPPP	inactive
WCKQGVGCDLGAMVELSKGG	1.22 ± 0.28
WCSCQPSFSKKHGEFYNLFL	9.215 ± 0.032
WCSIDLSHFVCYNLGYMR	7.395 ± 0.052
WDPLSSCKGACDM	0.717 ± 0.43
WDTHLYQDMGCFAHLFIRYF	inactive
WECLGTCDVGSCLTWRIGGR	2.82 ± 0.18
WELKAHVDV	0.737 ± 0.54
WEYTG	0.242 ± 0.74
WFDWLVYSGLDHGRFIEVLK	-0.432 ± 0.74
WFDYGR	inactive
WFGFGESAHLYRLREEDFHD	-0.206 ± 0.79
WFISGISKLMRHFALKYASM	2.5 ± 0.15
WFNFVPYHADYGNFL	0.053 ± 1.1
WFPALEYKCAQGQDRQQRPV	0.351 ± 0.74
WFTYQVAYVWYGRNFDTSPA	7.961 ± 0.067
WGETVLYSDY	-1.01 ± 1

Substance	amyloid nucleation score
WGHFQEDARFTSYGVGSVLG	-0.263 ± 1.1
WGLFPLQCHLVYRLLLSFHK	inactive
WGSMYRYFVDGSWFVVDISP	-0.26 ± 0.27
WGVCSQGYNVRIRVVARQKF	inactive
WHDIQALTSMDVGRYLGDAI	-0.696 ± 0.26
WHGKVGRTAWCLGMLFYDVR	1.02 ± 0.2
WHGRWSTNRRRPPNKMCRLV	1.06 ± 0.28
WHKFGNNRANEGRYIMHLMH	-0.282 ± 0.48
WHRVFKGLS	0.658 ± 0.26
WHSHMYNWWEQ	1.09 ± 0.28
WICFYDYWQGFSHNDCREME	-0.97 ± 0.36
WIDLNRRRREAL	-0.125 ± 0.34
WIIIFSKFV	-0.695 ± 0.79
WINVGCVCLMVMHILPI	5.4 ± 0.073
WISIRSTNRRKLRHRSYATV	0.56 ± 0.56
WIVVSSIDSFFCVSSSPQFR	inactive
WKGSEELRSGMAYVDGTGGE	1.32 ± 0.39
WKIDWTNVNPFVRPVGTTNG	0.917 ± 0.33
WKSLTGYIRLIFRNFWTSHD	inactive
WLGTRWRRGWGRLLKREGIL	1.79 ± 0.13
WLLPTTSLLSSQPAQAFRDH	-0.363 ± 0.49
WLPMGRAGLCYYGEFDNSCW	inactive
WLPNRRNVPYAVESVCS	0.971 ± 0.33

Substance	amyloid nucleation score
WLTYRCSVYYFYVEYWKSVY	0.256 ± 0.74
WLVGHKLKYA	0.113 ± 0.22
WLVIPWRCSNDRHIWLWELQ	1.55 ± 0.53
WLYNMTRLHIPFYARNWLNS	0.352 ± 0.37
WNKWSGLVLYTLGKLSY	-0.648 ± 0.39
WNLCGCAFDQLYKGVRSVNG	3.84 ± 0.066
WNSVIFCR	-0.704 ± 0.37
WNTLKVAGSVGGTAVDQVAV	1.33 ± 0.34
WNWRVNDGVPGMTYVKAYSS	-0.672 ± 0.42
WPGRRRYAMCVMTKRRGGLE	0.422 ± 0.29
WPVCTSIYMVGWWSVHTYHG	0.705 ± 0.8
WQVYQFSCRAEGEDL	2.48 ± 0.12
WRDTC	-0.086 ± 0.49
WRELKSQVDWRLDILSGSYR	0.971 ± 0.26
WRFWLPAKWISRGSFIVYWI	-0.717 ± 0.32
WRGLGVLYVSCVDSRVSSI	-1.73 ± 0.75
WRKCKLFFTLYHLHTVELWI	-0.826 ± 0.49
WRLNEDHNRYDLIPGVRGLG	0.519 ± 0.56
WRMREWKWVEYCRHSVKDAL	1.54 ± 0.31
WRNCYVYRTVLR	2.36 ± 0.07
WRQSVQ	1.12 ± 0.33
WRSYDMYSSWSIYVMAMTIS	-1.11 ± 0.53
WRVFSYYHISDRF	-0.19 ± 1.1
